Source: patent publication US7166472B2, “Method for the identification of agents that inhibit or promote cataracts and uses thereof” (The General Hospital Corporation, priority 2000, dated 2007)

B1: α-Crystallin: unmodified α-crystallin from calf lens, procedural control (protein, UniProt P02470 1-173; P02510 1-175, looked up)
Alpha-crystallin A chain: MDIAIQHPWFKRTLGPFYPSRLFDQFFGEGLFEYDLLPFLSSTISPYYRQSLFRTVLDSGISEVRSDRDKFVIFLDVKHFSPEDLTVKVQEDFVEIHGKHNERQDDHGYISREFHRRYRLPSNVDQSALSCSLSADGMLTFSGPKIPSGVDAGHSERAIPVSREEKPSSAPSS
Alpha-crystallin B chain: MDIAIHHPWIRRPFFPFHSPSRLFDQFFGEHLLESDLFPASTSLSPFYLRPPSFLRAPSWIDTGLSEMRLEKDRFSVNLDVKHFSPEELKVKVLGDVIEVHGKHEERQDEHGFISREFHRKYRIPADVDPLAITSSLSSDGVLTVNGPRKQASGPERTIPITREEKPAVTAAPKK
B2: 3-HK: α-crystallin: calf lens α-crystallin modified (tanned) by reaction with 3-HK, free metabolite removed by dialysis (protein, UniProt P02470 1-173; P02510 1-175, looked up)
Alpha-crystallin A chain: B1 Alpha-crystallin A chain
Alpha-crystallin B chain: B1 Alpha-crystallin B chain
modifications: modified with 3-hydroxykynurenine
notes: calf lens α-crystallin modified (tanned) by reaction with 3-HK, free metabolite removed by dialysis

Columns and labels:
[1] = Metal reduction capacity of tanned calf lens α-crystallin, Cu(II); type: biochemical; conditions: α-crystallin preparation 100 μg/ml, Cu(II)-glycine 25 μM, one hour 37° C.
Protocol: (§1) Studies of Tanned Calf Lens Crystalin in Assay of Crystallin Protein for Metal Reduction Capacity—α-Crystallin (10 mg/ml) from calf lens was modified by reaction with 3-HK (100 μM), 3-HAA (100 μM), or ASC (100 μM) in PBS, ph 7.4, for 12 hours at 4° C. in the dark. Control samples were incubated with ascorbic acid (100 μM) or without added reductant. The tanning incubation solutions also contained triethylenetetramine (TETA, 200 μM) to prevent cross-linking of the protein. After incubation, free reductant was removed from the tanned α-crystallin preparations by exhaustive dialysis at 4EC in the dark utilizing PBS, pH 7.4, containing CHELEX™ 100 chelating ion exchange resin (BioRad, Hercules, Calif.). The various modified α-crystallin preparations (100 μg/ml) were co-incubated with either Cu(II)-glycine glycine (25 μM) or Fe(III)-citrate (25 μM) for one hour at 37° C. and assayed for metal reduction capacity using the BC and BP spectrophotometric assay as detailed above. Incubated and dialyzed α-crystallin (100 μg/ml) and untreated α-crystallin (100 μg/ml) preparations were used for procedural control.
(§2) 3-HK: α-crystallin reduced nearly 100% of the available Cu(II) and approximately 20% of the available Fe(III). 3-HAA: α-crystallin reduced approximately 65% of the available Cu(II).

[2] = Metal reduction capacity of tanned calf lens α-crystallin, Fe(III); type: biochemical; conditions: α-crystallin preparation 100 μg/ml, Fe(III)-citrate 25 μM, one hour 37° C.
Protocol: as §1, §2

Molecule	reduction of available Cu(II) [1]	reduction of available Fe(III) [2]
B1	approximately 35%	negligible percentage
B2	~100%	approximately 20%
